US20260328755 (published 2026)

T1: TL1A (TNFSF15) (human, UniProt O95150)
T1 chain: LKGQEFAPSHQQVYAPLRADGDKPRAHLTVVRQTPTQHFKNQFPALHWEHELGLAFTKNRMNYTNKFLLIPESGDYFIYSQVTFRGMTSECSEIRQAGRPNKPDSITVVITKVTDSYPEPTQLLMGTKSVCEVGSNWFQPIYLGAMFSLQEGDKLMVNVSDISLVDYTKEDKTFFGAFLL

B1: heavy chain 512 antibody (S228P, L235E) (antibody)
chain 1: not shown
chain 2: EIVLTQSPGTLSLSPGERATLSCRASSSVSYMYWYQQKPGQAPRPLIYATSNLASGIPDRFSGSGSGTDFTLTISRLEPEDFAVYYCQQWEGNPRTFGGGTKLEIKRTVAAPSVFIFPPSDEQLKSGTASVVCLLNNFYPREAKVQWKVDNALQSGNSQESVTEQDSKDSTYSLSSTLTLSKADYEKHKVYACEVTHQGLSSPVTKSFNRGEC
B2: heavy chain 513 antibody (S228P, F234A, L235A) (antibody)
chain 1: not shown
chain 2: EIVLTQSPGTLSLSPGERATLSCRASSSVSYMYWYQQKPGQAPRPLIYATSNLASGIPDRFSGSGSGTDFTLTISRLEPEDFAVYYCQQWEGNPRTFGGGTKLEIKRTVAAPSVFIFPPSDEQLKSGTASVVCLLNNFYPREAKVQWKVDNALQSGNSQESVTEQDSKDSTYSLSSTLTLSKADYEKHKVYACEVTHQGLSSPVTKSFNRGEC

Molecular target: T1, TL1A (TNFSF15)
Assay: ELISA

Row | Binder | EC50 [nM]
1 | B1 | 0.324
2 | B2 | 0.252
